Reference: patent publication US20150139990A1 (DAINIPPON SUMITOMO PHARMA, published 2015)
Where a chain is given by its changes, count along the chain named. Names may count otherwise.

T1: human CD81 on CD81-expressing cells (Jurkat E6.1, human PBMC, Ramos) (human, UniProt P60033 1-236)
T1 sequence: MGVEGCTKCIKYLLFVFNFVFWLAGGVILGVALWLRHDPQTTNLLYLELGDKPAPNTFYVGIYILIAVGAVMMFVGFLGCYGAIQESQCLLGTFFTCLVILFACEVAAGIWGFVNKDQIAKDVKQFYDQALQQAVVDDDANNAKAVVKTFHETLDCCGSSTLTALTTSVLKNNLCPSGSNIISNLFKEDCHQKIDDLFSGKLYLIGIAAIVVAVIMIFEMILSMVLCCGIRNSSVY

T2: human CD81 mutant A164V (human, UniProt P60033 1-236, limits assumed)
T2 construct: as m30; not shown: C-terminal V5 and 6xHis tags
T2 sequence: T1 sequence with A164V

T3: human CD81 mutant V169L (human, UniProt P60033 1-236, limits assumed)
T3 construct: as m30; not shown: C-terminal V5 and 6xHis tags
T3 sequence: T1 sequence with V169L

T4: human CD81 mutant V169A (human, UniProt P60033 1-236, limits assumed)
T4 construct: as m30; not shown: C-terminal V5 and 6xHis tags
T4 sequence: T1 sequence with V169A

T5: human CD81 mutant V135A (human, UniProt P60033 1-236, limits assumed)
T5 construct: as m30; not shown: C-terminal V5 and 6xHis tags
T5 sequence: T1 sequence with V135A

T6: human CD81 mutant A164T (human, UniProt P60033 1-236, limits assumed)
T6 construct: as m30; not shown: C-terminal V5 and 6xHis tags
T6 sequence: T1 sequence with A164T

T7: human CD81 mutant I194A (human, UniProt P60033 1-236, limits assumed)
T7 construct: as m30; not shown: C-terminal V5 and 6xHis tags
T7 sequence: T1 sequence with I194A

T8: human CD81 mutant L165A (human, UniProt P60033 1-236, limits assumed)
T8 construct: as m30; not shown: C-terminal V5 and 6xHis tags
T8 sequence: T1 sequence with L165A

B1: 002-F07 (antibody, human IgG4 S228P, lambda, V domains shown)
VH: EVQLLESGGGLVQPGGSLRLSCAASGFTFSSNYMSWVRQAPGKGLEWVSYISSSSTYTDYADSVKGRFTISRDNSKNTLYLQMNSLRAEDTAVYYCARYSYGRDSFDYWGQGTLVTVSS
VL: QSVLTQPFSASGTPGQRVTISCTGSTSNIGAGFDTHWYQQLPGTAPKLLIYGNSNRPSGVPDRFSGSKSGTTASLAISGLRSEDEADYYCQSYDTNLSVWVFGGGTKLTVLG
notes: IgG4 S228P
B2: 003-A11 (antibody, human IgG4 S228P, lambda, V domains shown)
VH: B1 VH with S30G, S105N
VL: B1 VL with F8P, F33Y, T72S, V99G
notes: IgG4 S228P

Key:
[1] = target: T1, human CD81 on CD81-expressing cells …; test: cell-based or functional assay
human CD81 mutant A164V = target: T2, human CD81 mutant A164V; test: ELISA
human CD81 mutant V169L = target: T3, human CD81 mutant V169L; test: ELISA
human CD81 mutant V169A = target: T4, human CD81 mutant V169A; test: ELISA
human CD81 mutant V135A = target: T5, human CD81 mutant V135A; test: ELISA
human CD81 mutant A164T = target: T6, human CD81 mutant A164T; test: ELISA
human CD81 mutant I194A = target: T7, human CD81 mutant I194A; test: ELISA
human CD81 mutant L165A = target: T8, human CD81 mutant L165A; test: ELISA

Binder | Jurkat chemotaxis (% of control IgG4) at 0.001 µg/mL [1] [%] | Jurkat chemotaxis (% of control IgG4) at 0.01 µg/mL [1] [%] | Jurkat chemotaxis (% of control IgG4) at 0.1 µg/mL [1] [%] | Jurkat chemotaxis (% of control IgG4) at 1 µg/mL [1] [%] | Jurkat chemotaxis (% of control IgG4) at 10 µg/mL [1] [%] | relative binding affinity (human CD81 mutant A164V) [%] | relative binding affinity (human CD81 mutant V169L) [%] | relative binding affinity (human CD81 mutant V169A) [%] | relative binding affinity (human CD81 mutant V135A) [%] | relative binding affinity (human CD81 mutant A164T) [%] | relative binding affinity (human CD81 mutant I194A) [%] | relative binding affinity (human CD81 mutant L165A) [%]
B1 | 101 | 88 | 38 | 13 | 15 | < 20 | < 20 | < 20 | < 20 | < 20 | < 20 | < 20
B2 | 91 | 86 | 16 | 1 | 2 | < 20 | < 20 | < 20 | < 20 | < 20 | < 20 | < 20
